The target in assay [1] is T1, human MSLN-hFc recombinant protein (human, UniProt Q13421 296-580).
T1 construct: Captured by an anti-human IgG antibody on the chip; also called human MSLN protein; Acro MSN-H5253
Briefly: SPR (Biacore 8K), MSLN-hFc captured, antibody injected.

The target in assay [2] is T2, human MSLN on OVCAR3 tumor cells (human, UniProt Q13421 296-598).
T2 construct: whole, on cells; also called human MSLN protein
The assay can be described thus: FACS, OVCAR3 cells. On the technique in general: Flow cytometry measures light scatter and fluorescence of single cells or particles in a stream.

The target in assay [3] is T3, human MSLN-R3 protein (human, UniProt Q13421 487-598).
T3 construct: also called hMSLN-R3
The assay can be described thus: ELISA, MSLN-R3 coated, antibody 0.01 nM.

For assay [4], the target named is T4, human MSLN-R3 on HEK293T-hMSLN-R3 recombinant cells (human, UniProt Q13421 487-606).
T4 construct: the C-terminal limit is uncertain; also called human MSLN-R3 membrane protein
The assay can be described thus: FACS, HEK293T-hMSLN-R3 cells.

Assay [5] concerns the target T3, human MSLN-R3 protein. The assay can be described thus: ELISA, MSLN-R3 coated, antibody 1 nM. (ELISA stands for enzyme-linked immunosorbent assay.)
The target of assay [6] is T3, human MSLN-R3 protein. The assay can be described thus: ELISA, MSLN-R3 coated, antibody 0.1 nM.
Assay [7] has as its target T3, human MSLN-R3 protein. The assay can be described thus: ELISA, MSLN-R3 coated, antibody 10 nM.
Assay [8] has as its target T5, monkey MSLN on HEK293T-monkey MSLN recombinant cells (monkey).
T5 construct: Full-length precursor as transfected; processing on the cell is not described; also called HEK293-monkey MSLN
T5 chain: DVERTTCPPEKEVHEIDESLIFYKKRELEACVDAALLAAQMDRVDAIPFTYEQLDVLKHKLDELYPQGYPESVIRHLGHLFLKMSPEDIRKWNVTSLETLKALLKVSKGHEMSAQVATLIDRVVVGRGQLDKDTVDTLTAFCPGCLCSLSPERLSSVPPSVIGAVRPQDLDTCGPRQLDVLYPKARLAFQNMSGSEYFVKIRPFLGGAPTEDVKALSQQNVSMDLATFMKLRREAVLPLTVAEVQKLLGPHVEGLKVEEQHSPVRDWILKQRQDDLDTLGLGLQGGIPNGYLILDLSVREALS
Briefly: FACS, HEK293T-monkey MSLN cells.

In assay [9] the target is T3, human MSLN-R3 protein. The assay can be described thus: ELISA, MSLN-R3 coated, antibody 0.001 nM.
The target of assay [10] is T3, human MSLN-R3 protein. Briefly: ELISA, MSLN-R3 coated, antibody 100 nM.
In assay [11] the target is T3, human MSLN-R3 protein. The assay can be described thus: ELISA, MSLN-R3 coated, antibody 0.0001 nM.
Assay [12] has as its target T6, human MSLN-R1-his protein (human, UniProt Q13421 296-390).
T6 construct: also called hMSLN-R1-his; human MSLN-R1 protein
T6 chain: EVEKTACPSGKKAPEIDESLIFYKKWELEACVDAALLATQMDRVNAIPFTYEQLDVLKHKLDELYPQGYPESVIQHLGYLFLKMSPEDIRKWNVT
Briefly: ELISA, antibody 0.0001 nM.

Assay [13] deals with T6, human MSLN-R1-his protein. The assay can be described thus: ELISA, antibody 0.01 nM.
Assay [14] addresses T6, human MSLN-R1-his protein. Briefly: ELISA, antibody 100 nM.
For assay [15], the target named is T6, human MSLN-R1-his protein. The assay can be described thus: ELISA, antibody 0.001 nM.
In assay [16] the target is T6, human MSLN-R1-his protein. The assay can be described thus: ELISA, antibody 1 nM.
For assay [17], the target named is T6, human MSLN-R1-his protein. The assay can be described thus: ELISA, antibody 0.1 nM.
Assay [18] deals with T6, human MSLN-R1-his protein. Briefly: ELISA, antibody 0 nM (blank).
Assay [19] addresses T6, human MSLN-R1-his protein. Briefly: ELISA, antibody 10 nM.
The target of assay [20] is T7, human MSLN-R2-his protein (human, UniProt Q13421 391-486).
T7 construct: also called hMSLN-R2-his; not shown: His tag
Briefly: ELISA; antibody 0.1 nM.

The target of assay [21] is T7, human MSLN-R2-his protein. The assay can be described thus: ELISA; antibody 0.01 nM.
Assay [22] deals with T7, human MSLN-R2-his protein. The assay can be described thus: ELISA; antibody 100 nM.
In assay [23] the target is T7, human MSLN-R2-his protein. The assay can be described thus: ELISA; antibody 10 nM.
Assay [24] addresses T8, human MSLN-R3-3 polypeptide (human).
T8 construct: also called hMSLN-R3-3
The assay can be described thus: ELISA; antibody 1 nM.

The target of assay [25] is T9, human MSLN-R3-his protein (human, UniProt Q13421 487-598).
T9 construct: also called hMSLN-R3-his; not shown: His tag
Briefly: ELISA; antibody 1 nM.

Assay [26] deals with T7, human MSLN-R2-his protein. The assay can be described thus: ELISA; antibody 1 nM.
Assay [27] addresses T7, human MSLN-R2-his protein. The assay can be described thus: ELISA; antibody 0.0001 nM.
Assay [28] deals with T9, human MSLN-R3-his protein. Briefly: ELISA; antibody 100 nM.
Assay [29] has as its target T9, human MSLN-R3-his protein. Briefly: ELISA; antibody 1 nM. The source holds these as a separate data set.
The target of assay [30] is T9, human MSLN-R3-his protein. Briefly: ELISA; antibody 10 nM.
In assay [31] the target is T9, human MSLN-R3-his protein. Briefly: ELISA; antibody 0.0001 nM.
The target in assay [32] is T7, human MSLN-R2-his protein. Briefly: ELISA; antibody 1 nM. This is another data set of the same source.
Assay [33] concerns the target T9, human MSLN-R3-his protein. The assay can be described thus: ELISA; antibody 0.1 nM.
Assay [34] deals with T9, human MSLN-R3-his protein. Briefly: ELISA; antibody 0.01 nM.
For assay [35], the target named is T9, human MSLN-R3-his protein. Briefly: ELISA; antibody 0.001 nM.
Assay [36] has as its target T7, human MSLN-R2-his protein. The assay can be described thus: ELISA; antibody 0 nM (blank).
The target in assay [37] is T9, human MSLN-R3-his protein. The assay can be described thus: ELISA; antibody 0 nM (blank).
In assay [38] the target is T7, human MSLN-R2-his protein. The assay can be described thus: ELISA; antibody 0.001 nM.
The target of assay [39] is T10, human MSLN-FL-his protein (human, UniProt Q13421 296-580).
T10 construct: also called hMSLN-FL-his; human MSLN full-length protein
The assay can be described thus: ELISA.

T7 sequence (Q13421 other isoform, or with tags, fused parts or gaps): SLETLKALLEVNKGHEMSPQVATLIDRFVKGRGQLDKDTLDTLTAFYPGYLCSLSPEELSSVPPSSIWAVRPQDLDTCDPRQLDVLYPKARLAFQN
T3 sequence (Q13421 495-606): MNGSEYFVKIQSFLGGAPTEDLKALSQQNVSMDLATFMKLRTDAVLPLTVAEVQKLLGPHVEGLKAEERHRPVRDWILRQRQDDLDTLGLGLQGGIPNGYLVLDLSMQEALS
T9 sequence (Q13421 495-606): as above
T4 sequence (Q13421 495-614): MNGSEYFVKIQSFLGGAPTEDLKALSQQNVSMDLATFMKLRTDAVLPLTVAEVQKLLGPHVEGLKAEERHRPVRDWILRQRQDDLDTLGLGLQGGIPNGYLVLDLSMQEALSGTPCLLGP
T2 sequence (Q13421 other isoform, or with tags, fused parts or gaps): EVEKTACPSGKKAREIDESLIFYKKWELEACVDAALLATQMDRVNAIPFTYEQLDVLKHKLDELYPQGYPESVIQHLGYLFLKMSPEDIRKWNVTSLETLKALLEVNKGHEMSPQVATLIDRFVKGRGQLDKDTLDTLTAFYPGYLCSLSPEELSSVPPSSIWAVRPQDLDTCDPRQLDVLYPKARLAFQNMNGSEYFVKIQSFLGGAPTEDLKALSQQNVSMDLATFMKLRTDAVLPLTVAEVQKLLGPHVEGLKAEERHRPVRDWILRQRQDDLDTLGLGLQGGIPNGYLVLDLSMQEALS
T1 sequence (Q13421 other isoform, or with tags, fused parts or gaps): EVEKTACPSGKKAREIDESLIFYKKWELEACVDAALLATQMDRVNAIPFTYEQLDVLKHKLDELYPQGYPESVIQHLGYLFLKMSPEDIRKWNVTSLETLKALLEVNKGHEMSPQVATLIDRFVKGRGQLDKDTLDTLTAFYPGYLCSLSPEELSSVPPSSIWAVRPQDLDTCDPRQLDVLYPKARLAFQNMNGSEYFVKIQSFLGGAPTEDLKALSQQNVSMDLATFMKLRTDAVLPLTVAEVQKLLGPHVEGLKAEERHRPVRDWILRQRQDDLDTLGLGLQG

B1: F3.38.10-L1H5 (scFv, not shown: small tags and cut ends)
scFv: DIVMTQTPLSLPVTPGEPASISCRSSQSLIHSDGNTYLQWYLQKPGQSPQLLIYKVSNRFSGVPDRFSGSGSGTDFTLKISRVEAEDVGVYYCSQTTHVPFTFGQGTKLEIKGGGGSGGGGSGGGGSEVQLVQSGAEVKKPGASVKVSCKASGYIFTDYYMNWVRQAHGQRLEWMGVINPKNGVISHNQKFKGRVTITVDKSANTAYMELSSLRSEDTAVYYCANYGSRFYAMDYWGQGTTVTVSS
notes: also called S009-F3.38.10 humanized antibody VL1 + VH5
For orientation: EC50 means the concentration that produces a half-maximal response. Take B1: the binding result in assay [1] was “no binding”. Also, the results for the EC50 in assay [2], in assay [4] and in [8] were 99.8 nM, 12 nM and 90.1 nM, respectively. Also, the OD450 nm was 0.07 OD with human MSLN-R3 protein [3]; 0.27 OD with human MSLN-R3 protein [5]; 0.08 OD in the assay with human MSLN-R3 protein [6]; 1.19 OD in the assay with human MSLN-R3 protein [7]; 0.07 OD with human MSLN-R3 protein [9]; 2.36 OD with human MSLN-R3 protein [10]. The OD450 nm with human MSLN-R3 protein [11] is 0.07 OD. Also, in [4], the Maximum_MFI stood at 1280 MFI.

B2: Tab107 (YP3, hIgG1) (antibody, V domains shown)
VH: QEQLVESGGGLVQPGASLTLTCTASGIDFSRYYMCWVRQAPGKGLEGIACIYIGGSGSTYYASWAKGRFTISKASSTTVTLQMTSLTAADTATYFCARGTNLNYIFRLWGPGTLVTVSS
VL: DVVMTQTPSPVSAAVGGTVTIKCQASQSINNGLAWYQQKPGQPPRLLIYSASNLESGVPSRFKGSGSGTEFTLTISDLECDDAATYYCQCIWDGNSYVNAFGGGTEVVVRT
notes: also called YP3 human IgG1 antibody
As for B2, the OD450 nm in [12] worked out at 0.04; in assay [13], 0.06; in assay [14] it was 0.08; in assay [15], 0.05; in [16], 0.05; in [17], 0.05. Further, the OD450 nm was determined as 0.05 in assay [18] and 0.06 in [19].

B3: Tab020 (YP223, rabbitIgG1) (antibody, V domains shown)
VH: QEQLEESGGDLVQPEGSLTLTCKASGLDFSSSYWICWVRQAPGKGLEWIGCRHTFTANTWSASWVNGRFTISRSTSLGTVDLKMTSLTAADTATYFCARDESNNDGWDFKLWGPGTLVTVSS
VL: AYDMTQTPASVSAAVGGTVTIKCQASQSISNYLAWYQQKPGQPPKLLIYQASTLAPGVSSRFKGSGSGTEFTLTISGVECADAATYYCQQGYTSSNVENVFGGGTGVVVGD
notes: Control antibody; VH and VL recombined into rabbit IgG1 CH and CL expression vectors; also called YP223 rabbit IgG1 antibody; rabbit anti-human MSLN antibody
For B3, the OD450 nm in assay [20] stood at 0.2; in [21], 0.07; in assay [22] it was 2.5; in [23], 2.01; in [24] it was 0.09; in [25], 0.05. The OD450 nm in assay [26] amounted to 1.49; in assay [27], 0.05; in assay [28], 0.05; in assay [29], 0.05; in assay [30], 0.05; in assay [31] it was 0.05. For the same molecule, the OD450 nm in assay [32] amounted to 1.49; in assay [33], 0.05; in assay [34], 0.05; in assay [35], 0.05; in assay [36], 0.05; in [37], 0.05. Moreover, the OD450 nm in assay [38] amounted to 0.05.

B4: S009-F3.38.10 (antibody, human IgG1, kappa, V domains shown)
VH: EVQLQQSGPVLVKPGASVKMSCEASGYIFTDYYMNWVKKSHGKSLEWIGVINPKNGVISHNQKFKGKATLTVDKSSNTAYMELSSLTSEDSAVYYCANYGSRFYAMDYWGQGTSVTVSS
VL: DVVMTQTPLSLPVSLGDQASISCRSSQSLIHSDGNTYLQWYLQKSGQSPKLLIYKVSNRFSGVPDRFSGSGSGTDFTLKISRVETEDLGVYFCSQTTHVPFTFGSGTKLEIKR
notes: chimeric, human IgG1/kappa
In the case of B4, in assay [39], the binding result is on record as “no binding (tested: up to 100 nM)”.
